Data from patent US20180127513A1 (Bristol-Myers Squibb, published 2018).
Positions count from the first letter of the chain named. Names and notes keep the numbering of the source. Each block holds one binder with its values, some of them ahead of it.

Assays:
N-hCD73-his = molecular target: T1, N-hCD73-his (human, UniProt P21589 26-336); assay: SPR
T1 construct: also called hCD73(26-336)His; CD73(26-336)His; not shown: His tag
T1 sequence: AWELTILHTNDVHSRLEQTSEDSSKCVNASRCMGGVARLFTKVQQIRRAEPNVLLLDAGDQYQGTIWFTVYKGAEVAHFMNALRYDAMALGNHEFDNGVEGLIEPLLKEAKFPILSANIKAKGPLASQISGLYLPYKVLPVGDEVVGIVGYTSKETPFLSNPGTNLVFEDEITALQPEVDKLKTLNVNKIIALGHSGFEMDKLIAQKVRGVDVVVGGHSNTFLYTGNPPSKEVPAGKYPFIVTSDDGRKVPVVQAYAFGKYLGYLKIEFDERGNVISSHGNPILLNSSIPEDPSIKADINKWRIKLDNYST
Excerpt: One experimental format tested the binding of the N-terminal domain of hCD73 (consisting of residues 26-336 of human CD73; termed N-hCD73) to antibodies that were captured on immobilized protein A surfaces. For these experiments, protein A (Pierce) was immobilized to a density of 3000-4000 RU on flow cells 1-4 of a CM5 sensor chip (GE Healthcare) using standard ethyl(dimethylaminopropyl) carbodiimide (EDC)/N-hydroxysuccinimide (NHS) chemistry, with ethanolamine blocking, in a running buffer of 0.01 M HEPES pH 7.4, 0.15 M NaCl, 3 mM EDTA, 0.005% v/v tween 20. […] The running buffer for the kinetic experiments was 10 mM sodium phosphate, 130 mM sodium chloride, 0.05% tween 20, pH 7.1. The surfaces were regenerated after each cycle using two 30 s pulses of 10 mM glycine pH 1.5 at a flow rate of 30 μl/min. Sensogram data was double-referenced and then fitted to a 1:1 Langmuir model using Biacore T100 evaluation software v2.0.4, to determine the association rate constant (ka), the dissociation rate constant (kd), and the equilibrium dissociation constant (KD).

human CD73 on cells [1] = molecular target: T2, human CD73 on cells (human, UniProt P21589 27-549); assay: cell-based or functional assay
T2 sequence: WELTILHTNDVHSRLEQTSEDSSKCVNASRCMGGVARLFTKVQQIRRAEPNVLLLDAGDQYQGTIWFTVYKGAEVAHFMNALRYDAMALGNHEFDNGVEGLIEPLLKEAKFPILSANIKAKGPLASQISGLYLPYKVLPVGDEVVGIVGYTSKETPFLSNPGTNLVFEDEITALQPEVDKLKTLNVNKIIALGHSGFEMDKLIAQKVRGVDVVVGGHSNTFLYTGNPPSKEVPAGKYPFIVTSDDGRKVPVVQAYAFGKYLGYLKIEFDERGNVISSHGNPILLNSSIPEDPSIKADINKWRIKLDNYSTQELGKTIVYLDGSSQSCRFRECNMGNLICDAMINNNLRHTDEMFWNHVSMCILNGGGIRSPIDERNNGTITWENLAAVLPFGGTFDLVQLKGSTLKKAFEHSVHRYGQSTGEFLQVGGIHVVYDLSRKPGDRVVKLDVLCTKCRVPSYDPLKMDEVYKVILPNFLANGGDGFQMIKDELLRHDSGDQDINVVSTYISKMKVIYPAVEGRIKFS

human CD73 on cells [2] = molecular target: T2, human CD73 on cells; assay: cell-based or functional assay; remark: listed apart in the source

Kd (N-hCD73-his): ~5 nM
B1: CD73.11-IgG2-C219S (antibody)
heavy: QVQLVESGGGVVQPGRSLRLSCAASGFTFSNYGMHWVRQAPGKGLEWVAVIWYDESNKYYADSVKGRFTISRDNSKNTLFLQMNSLRAEDTAVYYCARGYNSRWYPDAFDIWGQGTMVTVSSASTKGPSVFPLAPCSRSTSESTAALGCLVKDYFPEPVTVSWNSGALTSGVHTFPAVLQSSGLYSLSSVVTVPSSNFGTQTYTCNVDHKPSNTKVDKTVERKSCVECPPCPAPPVAGPSVFLFPPKPKDTLMISRTPEVTCVVVDVSHEDPEVQFNWYVDGVEVHNAKTKPREEQFNSTFRVVSVLTVVHQDWLNGKEYKCKVSNKGLPAPIEKTISKTKGQPREPQVYTLPPSREEMTKNQVSLTCLVKGFYPSDIAVEWESNGQPENNYKTTPPMLDSDGSFFLYSKLTVDKSRWQQGNVFSCSVMHEALHNHYTQKSLSLSPG
light: not shown
notes: also called CD73.11-IgG2CS

Ymax, cAMP HTRF assay (100 nM 11F11 set to 100%) (human CD73 on cells [1]): 80%
B2: 5F8 (antibody, human IgG1, kappa, V domains shown)
VH: EVQLVESGGGLVQPGGSLRLSCAASGFTFSSYWMHWVRQAPGKGLVWVSRIISDGSSTGYADSVKGRFTISRDNAKNTLYLQMNSLRAEDTAVYYCAREFSSGWYFDYWGQGTLVTVSS
VL: AIQLTQSPSSLSASVGDRVTITCRASQGISSALAWYQQKPGKAPKLLIYDASSLESGVPSRFSGSGSGTDFTLTISSLQPEDFATYYCQQFSSYPRTFGQGTKVEIKR

Ymax, CD73 internalization (100 nM 11F11 set to 100%) (human CD73 on cells [2]): 104% | Kd (N-hCD73-his): ~5 nM
B3: 4D4 (antibody, human IgG2, kappa)
heavy: QVQLVESGGGVVQPGRSLRLSCAASGFTFSNYGMHWVRQAPGKGLEWVAVIWYDESNKYYADSVKGRFTISRDNSKNTLFLQMNSLRAEDTAVYYCARGYNSRWYPDAFDIWGQGTMVTVSSASTKGPSVFPLAPCSRSTSESTAALGCLVKDYFPEPVTVSWNSGALTSGVHTFPAVLQSSGLYSLSSVVTVPSSNFGTQTYTCNVDHKPSNTKVDKTVERKCCVECPPCPAPPVAGPSVFLFPPKPKDTLMISRTPEVTCVVVDVSHEDPEVQFNWYVDGVEVHNAKTKPREEQFNSTFRVVSVLTVVHQDWLNGKEYKCKVSNKGLPAPIEKTISKTKGQPREPQVYTLPPSREEMTKNQVSLTCLVKGFYPSDIAVEWESNGQPENNYKTTPPMLDSDGSFFLYSKLTVDKSRWQQGNVFSCSVMHEALHNHYTQKSLSLSPGK
light: not shown
notes: IgG2; also called 4D4-1

Ymax, cAMP HTRF assay (100 nM 11F11 set to 100%) (human CD73 on cells [1]): 84%
B4: 11A6 (antibody, human IgG1, kappa, V domains shown)
VH: EVQLVESGGNLVQPGRSLRLSCAASGFTFDDYAMHWVRQAPGKGLEWVSGISWNNNDIGYADSVKGRFIISRDNAKNSLYLQMNSLRPEDTALYYCVKGYYVILTGLDYWGQGTPVTVSS
VL: DIQMTQSPSSLSASVGDRVTITCRASQGISSWLAWYQQKPEKAPKSLIYAASSLQSGVPSRFSGSGSGTDFTLTISSLQPEDFATYYCQQYNSYPLTFGGGTKVEIKR

Ymax, CD73 internalization (100 nM 11F11 set to 100%) (human CD73 on cells [2]): 29%
B5: 10D2 (antibody, human IgG4, kappa, V domains shown)
VH: QVQLVESGGGVVQPGRSLRLSCAASGFTFSNYGLHWVRQAPGKGLEWVAVIRYDGSNKYYADSVKGRFTISRDNSKNTLYLQMSSLRAEDTAVYYCARGGSSWYPDGLDVWGQGTTVTVSS
VL: B4 VL

Ymax, CD73 internalization (100 nM 11F11 set to 100%) (human CD73 on cells [2]): 50% | Ymax, cAMP HTRF assay (100 nM 11F11 set to 100%) (human CD73 on cells [1]): 45%
B6: 7A11 (antibody, human IgG1, kappa, V domains shown)
VH: EVQLVESGGGLVQTGRSLRLSCAASGFTFDDYAMHWVRQAPGKGLEWVSDISWNSDIIGYADSVKGRFTISRDNAKNSLYLQMNSLRAEDTALYYCAKDIYGSGSSFFDYWGQGILVTVSS
VL: B4 VL with G28Y, N92H, L96P, G100Q, K103R, V104L

Ymax, cAMP HTRF assay (100 nM 11F11 set to 100%) (human CD73 on cells [1]): 80% | Kd (N-hCD73-his): 100 to 200 nM
B7: 4C3 (antibody, human IgG1, kappa, V domains shown)
VH: B4 VH with N10G, N54K, N55S, N56G, D57S, I69T, P88A, P115L
VL: not shown
notes: IgG1za; also called 4C3-1

Ymax, CD73 internalization (100 nM 11F11 set to 100%) (human CD73 on cells [2]): 98% | Ymax, cAMP HTRF assay (100 nM 11F11 set to 100%) (human CD73 on cells [1]): 76% | Kd (N-hCD73-his): 1.1 nM
B8: 11F11 (antibody, human IgG2, kappa, V domains shown)
VH: B5 VH with A24T, L34M, R52L, A61P, S84N, G107S, L108F, V110I, T116M
VL: B4 VL
notes: IgG2; also called 11F11-2

Ymax, CD73 internalization (100 nM 11F11 set to 100%) (human CD73 on cells [2]): 51%
B9: 24H2 (antibody, human IgG4, kappa, V domains shown)
VH: B5 VH with L34M, R52W, S56G, Y80F, S84N, G107A, L108F, V110I, T116M
VL: B4 VL

Kd (N-hCD73-his): 1.1 nM
B10: CD73.4-IgG2-C219S (antibody)
heavy: QVQLVESGGGVVQPGRSLRLSCAASGFTFSNYGMHWVRQAPGKGLEWVAVILYDGSNKYYPDSVKGRFTISRDNSKNTLYLQMNSLRAEDTAVYYCARGGSSWYPDSFDIWGQGTMVTVSSASTKGPSVFPLAPCSRSTSESTAALGCLVKDYFPEPVTVSWNSGALTSGVHTFPAVLQSSGLYSLSSVVTVPSSNFGTQTYTCNVDHKPSNTKVDKTVERKSCVECPPCPAPPVAGPSVFLFPPKPKDTLMISRTPEVTCVVVDVSHEDPEVQFNWYVDGVEVHNAKTKPREEQFNSTFRVVSVLTVVHQDWLNGKEYKCKVSNKGLPAPIEKTISKTKGQPREPQVYTLPPSREEMTKNQVSLTCLVKGFYPSDIAVEWESNGQPENNYKTTPPMLDSDGSFFLYSKLTVDKSRWQQGNVFSCSVMHEALHNHYTQKSLSLSPG
light: not shown
notes: also called CD73.4-IgG2CS; CD73.4-IgG2.3; copies: 2 + 2

Ymax, CD73 internalization (100 nM 11F11 set to 100%) (human CD73 on cells [2]): 99% | Kd (N-hCD73-his): ~5 nM
B11: CD73.10-IgG2-C219S (antibody)
heavy: B10 heavy with L52W, G55E
light: not shown
notes: also called CD73.10-IgG2CS; CD73.10-IgG2S

Ymax, CD73 internalization (100 nM 11F11 set to 100%) (human CD73 on cells [2]): 97%
B12: CD73.4-IgG2-C219S-IgG1.1f (antibody)
heavy: B10 heavy with Q274K, F296Y, F300Y, V309L, G327A, A330S, P331S, T339A, M397V
light: not shown
modifications: N-terminal Gln 94% pyro-Q; 97% of heavy chains lack the C-terminal Lys

Ymax, CD73 internalization (100 nM 11F11 set to 100%) (human CD73 on cells [2]): 99%
B13: CD73.10-IgG2-C219S-IgG1.1f (antibody)
heavy: QVQLVESGGGVVQPGRSLRLSCAASGFTFSNYGMHWVRQAPGKGLEWVAVIWYDESNKYYPDSVKGRFTISRDNSKNTLYLQMNSLRAEDTAVYYCARGGSSWYPDSFDIWGQGTMVTVSSASTKGPSVFPLAPCSRSTSESTAALGCLVKDYFPEPVTVSWNSGALTSGVHTFPAVLQSSGLYSLSSVVTVPSSNFGTQTYTCNVDHKPSNTKVDKTVERKSCVECPPCPAPPVAGPSVFLFPPKPKDTLMISRTPEVTCVVVDVSHEDPEVKFNWYVDGVEVHNAKTKPREEQYNSTYRVVSVLTVLHQDWLNGKEYKCKVSNKALPSSIEKTISKAKGQPREPQVYTLPPSREEMTKNQVSLTCLVKGFYPSDIAVEWESNGQPENNYKTTPPVLDSDGSFFLYSKLTVDKSRWQQGNVFSCSVMHEALHNHYTQKSLSLSPG
light: not shown
